Where two headings read alike, the source gives them in different places.
Assays:
[1] = molecular target: T1, recombinant cynomolgus macaque VISTA (His-tagged) (cynomolgus macaque, UniProt A0A7N9IB00 33-194); assay: BLI (Octet QK384): His-tagged cynomolgus VISTA on anti-Penta-HIS tips, V4 1433 to 179.1 nM as analyte, global fit
T1 construct: also called cyno VISTA; cynomolgus monkey VISTA
Experimental: (§1) All measurements were performed at 25° C. with agitation at 1000 rpm. Kinetic measurements for antigen binding were performed by loading anti-VISTA antibody at different concentrations (indicated in the Figures) for 120 s, followed by a 120 s dissociation time by transferring the biosensors into assay buffer containing wells. Sensograms were referenced for buffer effects and then fitted using the Octet QK384 user software (Pall ForteBio, USA).
(§2) Kinetic responses were subjected to a global fitting using a one site binding model to obtain values for association (kon), dissociation (koff) rate constants and the equilibrium dissociation constant (KD). Only curves that could be reliably fitted with the software (R²>0.90) were included in the analysis.

[2] = molecular target: T2, recombinant human VISTA (His-tagged) (human, UniProt Q9H7M9 33-194); assay: BLI (Octet QK384): His-tagged human VISTA on anti-Penta-HIS tips, V4 as analyte; value of the line above the sensorgram, which differs from the table below it
T2 construct: bought soluble protein (Sino Biological); also called hVISTA; human VISTA polypeptide
Experimental: as §1, §2

human B7H3 [3] = molecular target: T3, human B7H3 (human, UniProt Q5ZPR3 29-461, limits assumed); assay: ELISA, target protein coated, A450 against log M of antibody
T3 construct: also called CD276
T3 sequence (looked up): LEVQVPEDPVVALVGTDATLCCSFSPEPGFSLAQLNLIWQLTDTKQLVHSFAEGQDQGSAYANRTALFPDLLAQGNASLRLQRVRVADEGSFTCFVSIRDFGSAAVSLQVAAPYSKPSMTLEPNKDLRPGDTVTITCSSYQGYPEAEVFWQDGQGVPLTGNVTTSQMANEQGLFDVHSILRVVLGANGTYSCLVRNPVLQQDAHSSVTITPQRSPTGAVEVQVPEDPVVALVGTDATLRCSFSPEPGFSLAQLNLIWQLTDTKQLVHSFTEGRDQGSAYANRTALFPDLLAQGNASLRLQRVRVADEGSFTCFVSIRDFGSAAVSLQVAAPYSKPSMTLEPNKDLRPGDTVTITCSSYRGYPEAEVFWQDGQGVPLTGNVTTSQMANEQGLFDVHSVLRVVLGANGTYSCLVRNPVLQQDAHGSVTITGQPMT

human CTLA4 = human CTLA4 (human, UniProt P16410 36-162); assay: as above
[4] = molecular target: T2, recombinant human VISTA (His-tagged); assay: ELISA, plate coated with human VISTA
[5] = molecular target: T4, recombinant mouse VISTA (His-tagged) (mouse, UniProt Q9D659 33-191); assay: BLI (Octet), 1:1 global fit, His-tagged mouse VISTA captured
T4 construct: also called murine VISTA; mVISTA
T4 sequence (looked up): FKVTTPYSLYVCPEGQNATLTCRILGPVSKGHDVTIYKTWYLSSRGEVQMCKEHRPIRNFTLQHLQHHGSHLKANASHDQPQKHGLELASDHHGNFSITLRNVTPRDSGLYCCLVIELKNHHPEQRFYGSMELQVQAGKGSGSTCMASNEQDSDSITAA
Experimental: All measurements were performed at 25° C. with agitation at 1000 rpm. […] Sensograms were referenced for buffer effects and then fitted using the Octet QK384 user software (Pall ForteBio, USA).

[6] = molecular target: T1, recombinant cynomolgus macaque VISTA …; assay: BLI (Octet QK384), His-tagged VISTA on anti-Penta-HIS tips, antibody as analyte
Experimental: as §1, §2

[7] = molecular target: T4, recombinant mouse VISTA (His-tagged); assay: as above
Experimental: as §1, §2

[8] = molecular target: T1, recombinant cynomolgus macaque VISTA …; assay: ELISA, target protein coated, % Binding against log M of antibody
Experimental: ELISAs were used to determine the binding specificity of the antibodies.
Briefly, 96-well plates (Nunc, Denmark) were coated with 1 μg/ml of target protein in phosphate-buffered saline (PBS) for 2 h at 37° C. After blocking for 1 h with 10% BSA in Tris buffer saline (TBS) at room temperature, the test antibody was serially diluted (12 point serial dilution) with the highest concentration being 30 μg/ml and added to the plate, in the. Post 1 h incubation at room temperature, plates were washed three times with TBS containing 0.05% Tween 20 (TBS-T) and were then incubated with a HRP-conjugated anti-mouse IgG antibody (Life Technologies, Inc., USA) for 1 h at room temperature. After washing, plates were developed with colorimetric detection substrate 3,3′,5,5′-tetramethylbenzidine (Turbo-TMB; Pierce, USA) for 15 min at room temperature.

[9] = molecular target: T2, recombinant human VISTA (His-tagged); assay: ELISA, plate coated with human VISTA; remark: listed apart in the source
human PD-1 = human PD-1 (human, UniProt Q15116 25-167); assay: ELISA, plate coated with human PD-1, antibody titrated
Experimental: (§3) 384-well plates were coated with 1 μg/ml of target antigen diluted in PBS for 16 hrs at 4° C. […] After washing, plates were developed with colorimetric detection substrate 3,3′,5,5′-tetramethylbenzidine (Turbo-TMB; Pierce) for 10 min.

[10] = molecular target: T2, recombinant human VISTA (His-tagged); assay: antigen-binding ELISA; HMBD-002 in F6, day 30 at 40°C
[11] = molecular target: T2, recombinant human VISTA (His-tagged); assay: antigen-binding ELISA; HMBD-002 in F10, day 20 at 40°C
human FcγRIII (CD16a) = molecular target: T5, human FcγRIII (CD16a) (human, UniProt P08637 17-208); assay: ELISA, plate coated with human CD16a (FcγRIII), detection with HRP anti-human Fc antibody
T5 construct: also called human CD16a
Experimental: 96 well plates were coated with either 1 μg/well of human C1q protein or 0.5 μg/well of human CD16a in PBS at 4° C. Post overnight incubation, plates were washed thrice and blocked for 1 hr with blocking buffer at room temperature. […] Colorimetric reactions were developed using standard protocol as described for ELISA above.

human B7H3 [12] = molecular target: T3, human B7H3; assay: ELISA, plate coated with human B7H3, antibody titrated
Experimental: as §3

[13] = molecular target: T2, recombinant human VISTA (His-tagged); assay: antigen-binding ELISA; HMBD-002 in F2, day 10 at 40°C
[14] = molecular target: T2, recombinant human VISTA (His-tagged); assay: antigen-binding ELISA; HMBD-002 10 mg/mL in F9, day 0
[15] = molecular target: T2, recombinant human VISTA (His-tagged); assay: antigen-binding ELISA; HMBD-002 10 mg/mL in F5, day 0
[16] = molecular target: T2, recombinant human VISTA (His-tagged); assay: antigen-binding ELISA; HMBD-002 in F9, day 30 at 40°C
[17] = molecular target: T2, recombinant human VISTA (His-tagged); assay: antigen-binding ELISA; HMBD-002 in F3, day 20 at 40°C
[18] = molecular target: T2, recombinant human VISTA (His-tagged); assay: antigen-binding ELISA; HMBD-002 10 mg/mL in F6, day 0

Sequence of human PD-1 (Q15116 25-167 limits assumed): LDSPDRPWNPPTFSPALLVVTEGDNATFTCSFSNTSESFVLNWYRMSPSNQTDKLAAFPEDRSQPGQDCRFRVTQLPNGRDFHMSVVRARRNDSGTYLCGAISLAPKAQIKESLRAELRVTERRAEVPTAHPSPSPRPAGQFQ
T5 sequence (P08637 17-208 limits assumed): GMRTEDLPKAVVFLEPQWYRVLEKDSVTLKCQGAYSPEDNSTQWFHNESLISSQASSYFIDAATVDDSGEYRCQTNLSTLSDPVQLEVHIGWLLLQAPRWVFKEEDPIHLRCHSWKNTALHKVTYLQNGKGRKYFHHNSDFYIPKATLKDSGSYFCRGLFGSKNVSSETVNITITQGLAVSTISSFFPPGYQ
Sequence of human CTLA4 (P16410 36-162 limits assumed): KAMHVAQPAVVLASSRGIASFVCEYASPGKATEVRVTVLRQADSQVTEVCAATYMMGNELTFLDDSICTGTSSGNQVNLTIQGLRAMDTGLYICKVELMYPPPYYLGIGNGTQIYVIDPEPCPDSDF

B1: anti-VISTA clone 4M2-C12 IgG1 (antibody)
heavy: not shown
light: DIVITQTPAILSTSPGEKVTMTCRASSSVGYIHWYQQKPGSSPKPWIYATSNLASGVPARFSGSGSGTSNSLTITRVEAEDAATYYCQQWSSYPPITFGGGTKLEVKRTVAAPSVFIFPPSDEQLKSGTASVVCLLNNFYPREAKVQWKVDNALQSGNSQESVTEQDSKDSTYSLSSTLTLSKADYEKHKVYACEVTHQGLSSPVTKSFNRGEC
notes: mouse variable regions on human IgG1/kappa constant regions; also called V4; V4pr
[1]
  koff: < 1e-07 s⁻¹
  kon: 40200 M⁻¹ s⁻¹
[2]
  koff: < 4.54e-07 s⁻¹
Human B7H3 [3]
  binding result: no binding (tested: about 10^-7.5 M (log M axis))
Human CTLA4
  binding result: no binding (tested: about 10^-7.5 M (log M axis))
[4]
  EC50 (read off the curve): ~10 pM
[5]
  Kd: 108 nM
  koff: 0.00656 s⁻¹
  kon: 60900 M⁻¹ s⁻¹
[6]
  Kd: < 1 pM
[7]
  Kd: 113 nM
[8]
  EC50: 0.282 nM

B2: anti-VISTA clone V4-C27 IgG1 (antibody, V domains shown)
VH: QVQLQESGPGLVKPSDTLSLTCTVSGYSITSDYTWNWIRQTPGKGLEWIGHITYSGSVSYNPSLRSRVTISRDTSKNQFSLKLSSVTAADTATYSCARALYYPWYFDVWGTGTTVTVSS
VL: EIVLTQSPATLSLSPGERATLSCRASSSVGYIHWYQQKPGQAPRPLIYATYNRATGIPARFSGSGSGTDNTLTISSLEPEDSAVYYCQQWSSYPPITFGGGTKLEVKR
[9]
  EC50 (read off the curve): ~10 pM

B3: V4-C26 hIgG4 (antibody)
heavy: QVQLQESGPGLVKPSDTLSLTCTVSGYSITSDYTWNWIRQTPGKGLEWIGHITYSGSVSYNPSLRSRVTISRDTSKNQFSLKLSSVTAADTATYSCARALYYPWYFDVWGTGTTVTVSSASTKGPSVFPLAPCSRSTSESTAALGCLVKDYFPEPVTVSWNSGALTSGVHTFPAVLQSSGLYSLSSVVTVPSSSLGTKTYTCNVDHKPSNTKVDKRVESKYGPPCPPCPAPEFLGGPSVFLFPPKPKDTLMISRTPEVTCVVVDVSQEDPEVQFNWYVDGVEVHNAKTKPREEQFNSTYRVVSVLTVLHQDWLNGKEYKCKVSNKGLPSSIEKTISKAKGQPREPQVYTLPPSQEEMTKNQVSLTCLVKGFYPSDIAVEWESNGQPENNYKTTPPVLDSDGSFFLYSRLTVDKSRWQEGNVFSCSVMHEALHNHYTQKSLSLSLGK
light: EIVLTQSPATLSLSPGERATLSCRASSSVGYIHWYQQKPGQAPRPIIYTTSNRATGIPARFSGSGSGTDNTLTISSLEPEDSAVYYCQQWSSYPPITFGGGTKLEVKRTVAAPSVFIFPPSDEQLKSGTASVVCLLNNFYPREAKVQWKVDNALQSGNSQESVTEQDSKDSTYSLSSTLTLSKADYEKHKVYACEVTHQGLSSPVTKSFNRGEC
notes: human IgG4 (S228P)/kappa format; also called HMBD-002; HMBD-002-V4C26
Human PD-1
  binding result: no binding (tested: about 3e-8 M)
[10]
  EC50: 0.0218 nM
[11]
  EC50: 0.0235 nM
Human FcγRIII (CD16a)
  binding result: no binding (tested: about 2e-7 M)
Human B7H3 [12]
  binding result: no binding (tested: about 3e-8 M)
[13]
  EC50: 0.0322 nM
[14]
  EC50: 0.0315 nM
[15]
  EC50: 0.031 nM
[16]
  EC50: 0.0237 nM
[17]
  EC50: 0.0189 nM
[18]
  EC50: 0.0294 nM
